In article PMC5664961 (2017) one finds Kd data, which are given here for one molecule.

For the assay, the target named is human Cul3 N-terminal domain (NTD, residues M1-L388) with the engineered mutations I342R and L346D (human, UniProt Q13618 1-388, I342R | L346D). As to the kind of experiment: ITC.
Chain of human Cul3 N-terminal domain (NTD, residues M1-L388) with the engineered mutations I342R and L346D (Q13618 1-388 I342R/L346D): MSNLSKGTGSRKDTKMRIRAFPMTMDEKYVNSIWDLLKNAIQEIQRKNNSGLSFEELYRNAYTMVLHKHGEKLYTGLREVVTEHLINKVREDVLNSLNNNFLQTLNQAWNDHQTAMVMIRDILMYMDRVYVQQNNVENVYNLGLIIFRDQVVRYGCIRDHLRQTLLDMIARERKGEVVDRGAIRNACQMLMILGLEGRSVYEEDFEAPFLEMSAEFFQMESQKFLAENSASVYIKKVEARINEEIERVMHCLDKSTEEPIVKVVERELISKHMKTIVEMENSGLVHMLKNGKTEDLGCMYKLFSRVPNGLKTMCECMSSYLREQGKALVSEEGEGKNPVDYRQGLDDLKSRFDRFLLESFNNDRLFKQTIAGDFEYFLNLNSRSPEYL

B1: KCTD17 BTB + CTD multi-domain construct (residues G20-Q220), tag cleaved (domain or fragment)
chain: SMGAGGRAAGGWGKWVRLNVGGTVFLTTRQTLCREQKSFLSRLCQGEELQSDRDETGAYLIDRDPTYFGPILNFLRHGKLVLDKDMAEEGVLEEAEFYNIGPLIRIIKDRMEEKDYTVTQVPPKHVYRVLQCQEEELTQMVSTMSDGWRFEQLVNIGSSYNYGSEDQAEFLCVVSKELHSTPNGLSSESSRKTKSTEEQLEEQ
A word on the Kd: it is the constant that tells how readily two partners part at equilibrium. Consider B1, for which the Kd turned out to be 0.012 µM. This lies in the double-digit nanomolar range.
